Experimental findings from US20210230599, “STEM-LOOP COMPOSITIONS AND METHODS FOR INHIBITING INTERLEUKIN-8” (VITRISA THERAPEUTICS, INC., published 2021) are described below.

The target in series [1] is T1, Interleukin-8 (IL8, CXCL8), C-terminal His-tagged (Homo sapiens, UniProt P10145 SEQ:1-72). Nature of the series: competition; competition TR-FRET; affinity within error of unpegylated parent; parent given as Aptamer 38 and as Aptamer 3. The settings on record: tags: C-terminal His (Sino Biological); stem-loop. How it is done:
(§1) To better understand the sequence requirements and to confirm the stem structures of members of the Aptamer 3 family as determined from sequence covariation analysis from both the primary and secondary (degenerate) selections, a series of variants which included mutations and deletions to the predicted stems were synthesized and screened (Table 24). Activity of each of these variants were tested using a time resolved competition TR-FRET assay in which the labeled parent Aptamer 3 was competed with increasing concentrations of unlabeled variants for binding to IL8 (FIG. 14). Briefly, 2-fold dilutions of thermally equilibrated aptamers were made in TR-FRET Buffer (50 mM MOPS, pH 7.4, 125 mM NaCl, 5 mM KCl, 50 μM CHAPS, 0.1 mg/mL BSA, 1 mM CaCl₂, and 1 mM MgCl₂). 5 μL of aptamer or control solution was added to 5 μl mix of 10 nM C-terminal His-tagged-IL8, 60 nM ALEXA FLUOR® 647-labeled Aptamer, and 5 nM anti-His-Eu (Perkin Elmer) in a black wall low volume 384 well plate (Greiner). For control, 5 μl of 1000-fold excess of unlabeled parent aptamer or 5 μl TR-FRET buffer alone was added to the mix of ALEXA FLUOR® 647-labeled aptamer, His-IL8, and anti-His-Eu. The plate was covered with a plate seal and subsequently incubated in the dark for 1 hour at room temperature. The plate was read on a Biotek CYTATION™ 5 plate reader. […]

Series [2] addresses T1, Interleukin-8 (IL8, CXCL8), C-terminal …. Nature of the series: competition; competition TR-FRET; U13A. The conditions noted are these: tags: C-terminal 6xHis (Sino Biological). As to the method: as §1, with “Activity” for “To better understand the sequence requirements and to confirm the stem structures of members of the Aptamer 3 family as determined from sequence covariation analysis from both the primary and secondary (degenerate) selections, a series of variants which included mutations and deletions to the predicted stems were synthesized and screened (Table 24). Activity”
(§2) To better understand the sequence requirements and confirm the stem structures of members of the Aptamer 8 family as determined from sequence covariation analysis from both the primary and secondary (degenerate) selections, a series of variants which included mutations and deletions to the predicted stems (Tables 45 and 46) were synthesized and screened. […]

Series [3] has the same target. Nature of the series: competition; competition TR-FRET; S1 disrupted. The conditions noted are these: tags: C-terminal 6xHis (Sino Biological). How it is done:
as §1, with “Activity” for “To better understand the sequence requirements and to confirm the stem structures of members of the Aptamer 3 family as determined from sequence covariation analysis from both the primary and secondary (degenerate) selections, a series of variants which included mutations and deletions to the predicted stems were synthesized and screened (Table 24). Activity”
as §2

The target is the same in series [4]. Nature of the series: inhibition; inhibition of IL8 binding to CXCR1 cells, 5 nM IL8, protein limited; neutrophil migration 3 nM (Table 35). The settings on record: tags: C-terminal His (Sino Biological); stem-loop. How it is done: (§3) CXCR1 overexpressing cells were used to confirm that aptamers could block IL8 binding to its cognate receptor, CXCR1, in a functional setting. Briefly, CXCR1-overexpressing cells were plated in a 96 well plate and seeded overnight. Serially diluted aptamers and 5 nM IL8 were mixed in cell culture media and applied to cells for 2 hours at 37° C. Media was aspirated, and cells were washed 3× with PBS for 5 minutes. Cells were lysed in Ultra HiBlock Buffer (Perkin Elmer) with gentle agitation. IL8 levels were determined using Ultra TR-FRET (Perkin Elmer).

Series [5] has the same target. Nature of the series: inhibition; inhibition of IL8 binding to CXCR1 cells, protein limited; neutrophil migration 2 nM. The settings on record: tags: C-terminal His (Sino Biological); stem-loop. As to the method: as §3
Series [6] has the same target. Nature of the series: TR-FRET; GAG-site binder, displaced by heparan sulfate IC50 9 uM. The conditions noted are these: tags: C-terminal 6xHis (Sino Biological); label: Alexa Fluor 647. From the text:
Differences between these TR-FRET values (Table 10) and those from the bead binding assay (Table 9) may be due to a different limiting concentration of IL8. […] It is also possible that differences may arise due to TR-FRET being a homogenous solution binding assay, while bead binding has immobilized ligand and is non-homogenous, so bound aptamers may dissociate during analysis resulting in higher calculated Kd values.
Aptamer 1 (C6NH₂-[…]-idT, where C and U are 2′F, A and G are 2′OH; C6NH₂ is a hexylamino linker; and idT is a 3′ inverted deoxythymidine residue (SEQ ID NO: 75 with modifications)) was used as a positive control for an aptamer that binds to the GAG binding site. Aptamers 1, 3, 6, 8 and 11 were labeled with ALEXAFLUOR® 647 as described in Example 3. […] Briefly, 2-fold dilutions of heparan sulfate (Sigma Aldrich) were made in TR-FRET Buffer (50 mM MOPS, pH 7.4, 125 mM NaCl, 5 mM KCl, 50 μM CHAPS, 0.1 mg/mL BSA, 1 mM CaCl₂ and 1 mM MgCl₂). […] heparan sulfate or control solution were added to […] a mixture of 10 nM C-His-tagged-IL8 (Sino Biological), 5 nM anti-His-Eu (Perkin Elmer), and 30 nM AlexaFluor® 647-labeled aptamer in TR-FRET in a black low volume 384-well plate (Greiner). The plate was covered with a plate seal and subsequently incubated in the dark for 1 hour at room temperature. The plate was read on a Biotek CYTATION™ 5 plate reader. […]

For series [7] the target is unchanged. Nature of the series: TR-FRET, 1 mM Ca, 1 mM Mg, room temperature. The conditions noted are these: tags: C-terminal 6xHis (Sino Biological); label: Alexa Fluor 647. As to the method:
Aptamers were synthesized and labeled with ALEXA FLUOR® 647, and binding to IL8 was quantified by Time-Resolved Fluorescence Resonance Energy Transfer (TR-FRET). Briefly, 2-fold dilutions of thermally equilibrated aptamers were made in TR-FRET Buffer (50 mM MOPS, pH 7.4, 125 mM NaCl, 5 mM KCl, 50 μM CHAPS, 0.1 mg/mL BSA, 1 mM CaCl₂ and 1 mM MgCl₂). […] of aptamer or control solution was added to 10 μL of 15 nM C-His-tagged-IL8 (Sino Biological) in a black wall half-area plate (Corning). In the same plate, 10 μl of aptamer solution was added to 10 μl of TR-FRET buffer alone to use for background subtraction. 10 μl of 15 nM anti-His-Eu (Perkin Elmer) was added to each well, the plate was covered with a plate seal and subsequently incubated in the dark for 1 hour at room temperature. The plate was read on a Biotek CYTATION™ 5 plate reader. Samples were excited at 330 nm and fluorescent values were collected at 665 nm. […] Apparent Kd values obtained for the fits are calculated as the concentration of half-maximal binding and shown in Table 10, and fit curves as FIG. 6. […] It is also possible that differences may arise due to TR-FRET being a homogenous solution binding assay, while bead binding has immobilized ligand and is non-homogenous, so bound aptamers may dissociate during analysis resulting in higher calculated Kd values.

B1: Aptamer P01 (ssRNA)
RNA: GAUGACGGUAGAUUACGGGUAGAGUGACCGCAUC
modifications: 2'-F G; 2'-OMe A,C,U; 5' 40 kDa PEG via C6NH2; 3' idT
Regarding B1, the binding result in series [1] is listed as “binds”.

B2: Aptamer 61 (ssRNA)
RNA: CGGUGGGAAAAGUGAGAUGGGUUGCCG
modifications: 2'-F G, 2'-OMe A/C/U, 5' C6NH2, 3' idT
As for B2, the binding result in series [2] is on record as “binds”.

B3: Aptamer 214 (ssRNA)
RNA: CAAUGGGAAAUGUGAGAUGGGUUGCCG
modifications: 2'-F G, 2'-OMe A/C/U, 5' C6NH2, 3' idT
The molecule B3 displayed a binding signal in series [3] greater than 10 fold worse than Aptamer 8.

B4: Aptamer 3 (ssRNA)
RNA: UGAUGACGGUAGAUUACGGGUAGAGUGACCGCAUCU
modifications: 2'-F G; 2'-OMe A,C,U; 5' C6NH2; 3' idT
Turning to B4, the IC50 in series [4] is 3 nM.

B5: Aptamer 147 (ssRNA)
RNA: GGCGACGGUAGAUUAUGGGCAGUGUGACCGCGCC
modifications: 2'-F G; 2'-OMe A,C,U; 5' C6NH2; 3' idT
B5: the IC50 in series [5] was found to be 3 nM.

B6: Aptamer 1 (ssRNA)
RNA: GGGGGCUUAUCAUUCCAUUUAGUGUUAUGAUAACC
modifications: 2'-F C and U, 2'-OH A and G, 5' C6NH2, 3' idT
B6: in series [6], the affinity, expressed as Kd, was 3 nM. This lies in the single-digit nanomolar range.

B7: Aptamer 19 (ssRNA)
RNA: UGUCGCCCUACGUAAACCGCUAUUUGCGACUGCGGU
modifications: 2'-F G, 2'-OMe A/C/U, 5' C6NH2, 3' idT
For B7, in series [7], the affinity, expressed as Kd, was 4 nM.
